Molecular target: EGF-MMP (recombinant epidermal growth factor with N-terminal PLP reactive site AKT, polyhistidine tag and MMP cleavage site VPLSLYSG)
Sequence (chain, as listed by the source): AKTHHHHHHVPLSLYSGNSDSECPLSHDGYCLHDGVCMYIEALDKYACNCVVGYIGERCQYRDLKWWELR

B1: Recombinant, human pro-MMP-9 expressed in CHO cells, activated with amino-phenyl mercuric acetate (APMA) (protein)
chain: APRQRQSTLVLFPGDLRTNLTDRQLAEEYLYRYGYTRVAEMRGESKSLGPALLLLQKQLSLPETGELDSATLKAMRTPRCGVPDLGRFQTFEGDLKWHHHNITYWIQNYSEDLPRAVIDDAFARAFALWSAVTPLTFTRVYSRDADIVIQFGVAEHGDGYPFDGKDGLLAHAFPPGPGIQGDAHFDDDELWSLGKGVVVPTRFGNADGAACHFPFIFEGRSYSACTTDGRSDGLPWCSTTANYDTDDRFGFCPSERLYTQDGNADGKPCQFPFIFQGQSYSACTTDGRSDGYRWCATTANYDRDKLFGFCPTRADSTVMGGNSAGELCVFPFTFLGKEYSTCTSEGRGDGRLWCATTSNFDSDKKWGFCPDQGYSLFLVAAHEFGHALGLDHSSVPEALMYPMYRFTEGPPLHKDDVNGIRHLYGPRPEPEPRPPTTTTPQPTAPPTVCPTGPPTVHPSERPTAGPTGPPSAGPTGPPTAGPSTATTVPLSPVDDACNVNIFDAIAEIGNQLYLFKDGKYWRFSEGRGSRPQGPFLIADKWPALPRKLDSVFEERLSKKLFFFSGRQVWVYTGASVLGPRRLDKLGLGADVAQVTGALRSGRGKMLLFSGRRLWRFDVKAQMVDPRSASEVDRMFPGVPLDTHDVFQYREKAYFCQDRFYWRVSSRSELNQVDQVGYVTYDILQCPED
B1 was tested, and the “conversion to the cleaved product by integration of MALDI-TOF data” value was “over 99% conversion to the cleaved product” and the “molecular weight by MALDI-TOF after incubation with MMP-9 (cleavage)” value was “After 2 hours, the molecular weight decreased from 8.16 kDa to 6.64 kDa, in precise agreement with the theoretical molecular weight of cleaved EGFMMP (6.64 kDa)”.
